The text below walks through data of the DeepSol protein solubility set.

A short description of this data set: soluble on expression in E. coli; label from the status in PepcDB or PDB records.
For “MGSDKIHHHHHHMRMAQVVLENVTKVYENKVVAVKNANLVVEDKEFVVLLGPSGCGKTTTLRMIAGLEEITDGKIYIDGKVVNDVEPKDRDIAMVFQNYALYPHMTVYENMAFGLKLRKYPKDEIDRRVREAAKILGIENLLDRKPRQLSGGQRQRVAVGRAIVRNPKVFLFDEPLSNLDAKLRVQMRSELKKLHHRLQATIIYVTHDQVEAMTMADKIVVMKDGEIQQIGTPHEIYNSPANVFVAGFIGSPPMNFVNARVVRGEGGLWIQASGFKVKVPKEFEDKLANYIDKEIIFGIRPEDIYDKLFALAPSPENTITGVVDVVEPLGSETILHVKVGDDLIVASVNPRTQAKEEQKIDLVLDMTRMHAFDKETEKAII”, the “soluble on expression in E. coli” value is “not soluble”. For “MAQEFSGDVFVISVAAELAGMHAQTLRTYDRLGLVTPQRTRGGGRRYSRDDVELLRTVQHLSQVEGVNLAGIKSIIELKKENAQLRKELAAARAEADVLKNRGARPRGEIVHVPRSTAVVMWQPRRSSRQHD” the value was “not soluble”; for “MGHHHHHHSHMANSAGSMANSAGSMHLVVESFPSYRDVTLFEGKRVSFYKRAQILVADTWSVLEGKGDGCFKDISSITMFADYRLPQVLAHLGALKYSDDLLKKLLKGEMLSYGDRQEVEIRGCSLWCVELIRDCLLELIEQKGEKPNGEINSILLDYYLWDYAHDHREDMKGIPFHRIRCIYY”, “not soluble”; for “MSLNIQAIDTRHGTANQHSFSNGNCLPYTGVPFGMNFYAPQTTDQKGSWWFHPEDRTFQGYRVTHQPSPWMGDFSHLLMTPVSGSLSELSLFHAQSSYRPEESLFSPVEINLTQLRYQITSQLIPSMYGGILTIDYQQKDNHLLLTLPGRYQVKQLDDHQVAVKVINYSGCEDPDFSFYFVLHFEQPLTKWFAPSSGEDGKILLSFGNIAQQVVHFSSSFISEKQAQLNLAREISLRSTEMLQQGIADWHNYFDRLKVTHENPEHTKTFYHTLYRTFLFPQTFYELDENQQPIHYDTFSQTVRPGVLYTNNGFWDTYKTVYPLFSLIAQEKYEEMLEGFLNSYNETGFLPKWLSPDERGLMPGTLIDAVIADAAVKKIRPDLMPQFLEAMKKGATQQSERENYGRQGTLDYLKYGYVPSTYHESVNHTLDYAYSDFCISQVAKTLNDSETATFYRQQALNYQQLFNPETGFMQAKDTEGNFRPDFLDIRWGKDYAEGSAWQSSFAVYQDFAGLIKLYGSELAFEKKLIQLCNQAPNFNVEGYGFEIHEMSEMAAIDFGQLAISNQPSFHYPFLFSYIGKPEMAQPLLKQLMQTFDASPTGYPGDEDNGSMSAWYIFNSLGFYPVTPGTGEYVIGMPLVQTAEVKLSNGKQLTIQTSPNKVQQQFIHEIQLNQEKHTAPYFTHQELLNGGTLDYQLGIVPNPQNTAERPFSLSTEKEGGSHHHHHH”, “soluble”. Consider “MAHHHHHHMSKKNKSFYENDGSGRDTFVNYAGAYWMNPLPAGTFFKSRGHLTQSSVPTENGTSLVMDDSTPYPGRTLFGKSRYGTTILAAGQVATLDAPADSQSGHSAGMGSTSRSTANPLAGTDADAQEFDGEATALEHISFDVSNPERRLRQPGHSTTGLEGTGGGSTYNGVKEPWTAPNAVDSTLLRLAPAYESTCHYHLRTGLFYTEDAAPPHEMTLPDKGVTWGRSRYY”, for which the “soluble on expression in E. coli” value was “soluble”. For “MAHHHHHHMIADDMGLGKTVQALAVAHHYRNEWPVLIVCPLSLVENWTKELMRFCSIPIGRIAIFQNSKVRVTDVHSAVIVPYSSLKSLDTQSTTFQVVILDESHYIKTVDSKRTVAALKLCRVARRVLLLSGTPTLSRPIELYPQLQTIMHPSWTPSKSLFAARYCNAFVGRFGVDYLGHSHMSELHVLLQQFVIRRTKRELGNELPSKIRQLLYVYITPKEKKALEKSVSALRNSFRDGATLPTLGDVASTTNMAQGTGGNLTTCTAGGVTATRNMTAFDLKIATARAKIAAVQDYVKSTTEQMVESGQKVIIFAHHQCMMEAIREAVESVQPKQPLDYIYITGETPAAQREALTTHFRTSTNCHVAVLSMHSCGVGHNLTCATMVVFAELDWNPSTHLQCEDRVHRMGQSSACVIKYLLAEGTSDSVIWPMLQTKLNVTHAVLEDSQAGGEGWSAGADTRRILRSDVPLTPSSPEKKQLTLEGFLSHSGSRPSRPLTQSSDSNAEVLKTSDESPRADTSPDTPFQSPSAVAPAENVLFDIAKLRQQREARKVFHSMPVLGTAGAGSSPVAAVTVTPPPPQIQRQVTLHEVLTNHPANSPTPKNSPQQRTNFHVAVAAKSFNERSGAAHTSSCSSETTVCAPIVSHPVKTLFLTRPASANSSSAASSVKPHAGASAADLSVFSTASKEGSICLAPSPRSEEIRRYNARRTPFILGSTLEKRLRPDDMEDQVS”, the “soluble on expression in E. coli” value is “not soluble”. For the sequence “KGLSADKKYFETRVNPTSVFWTGGKWKERLVQIMSQTQEQDILKFLKQTASPAMHELQRELSEEYGLSVRVDKMFHRDEPAIEFVIRKETMRDFMYGIKSVGQDVSDQLINDGKLPHIRHQTTYKPYAYFFDGRVGYDVQYMNKDELIADILKNYERYLMLLDDVGQELMAHEQVELAE”, the “soluble on expression in E. coli” value is on record as “not soluble”. Under “MPPKTRKTKKEDVEEEAVEEILEETKPAKLPESDESYSRKVVISKEGNLPNSRIIKLRHPKEGLALFRISETCFDEIFAVNDGHRSFFYGESVIENGTIHIFTPYNLVFICLPYLQKTAGKFVEIGEILVDDQVDGIKELAENERILKALEAVSDVKDVLDVKLYRLNDQKMLDWMRRKFDSLKKLLESDAHKSLLSCPEAFDRYVFTFLSEYLSSDLALIVKDHLNIQDATVSENIDMSMKRKAVDDDELEDKKQPVAKKPKESVQSKKLQAASKGTKSISSFFGKKSA” stands “soluble”; under “MGSDKIHHHHHHMTNRCLYCYEPLVDGEMDYHAKCCRKLFGTPQAPILPYTSSEVRALADEVVRSQTTVTGVQPKLSLDFDQMSNSPKRFTIVGLWGRFILKPQTERYSHLPELEDVSMHLAEIAKIETVPHGLMRFSDGELCYITRRIDRTGQGEKLPMEDMCQLSERLTEYKYKGSHEQVAKLISKYSSVPKLDLVKYWEQVLFSWLIGNADMHLKNYSLYAPEGNEYQLTPAYDLLSTALVIPEDTEELALTLCGKKRKLTRQHFLEAMTASGLDEKVCDNIFARFQHILPEWEACIRQSFLPTEMQRQYIEFILLKFSQI”, “not soluble”. As for “MTLPTTIYSFPAYLSRFSSTDKPVKLKFHQYARATLLSNRGRDHNCDGRRTVEIHKLDLSDWQAFNKLATRCNAYDGITMNGDNSFGWNHEATLDNIHAQKYNKAYAGARLTAELKYLLQDVESFEPNSKYTIHEVVLGPGYGTPDYTGQTIGYVVTLPAQMPNCWSSELPTIDLYIDQLRTVTGVSNALGFIIAALLNAYSDLPHDLKIGLRSLSSSAAIYSGLGFERVPQERDISCARMYLTPANHPDLWTQENGEWIYLRN”, the “soluble on expression in E. coli” value is recorded as “not soluble”.

Consider “MGSDKIHHHHHHMDSIQESDVLNAVKTKLPPCCLRIFRNKIILVGTYDLDKSTGYRSGSLDVFTMDLKLLCSNNTYGAILDLKLSPFDDTLICTAHSTGNIMLWRIRCTDKDDFQSNELDIHAIANLQLFEKDVLIASCHFSPLDCKKLLVTNTAGEAATIDIRTLSVQFTASAIAQAYSKLDKIDYEVQGATEKVIHVESGQFLKPHELECWTAEFGSLQPFQDVVFTGGDDSRIMAHDLRSKEFIWSNNRIHDAGVVSIKCSQPNFRNNKPTSIITGSYDDNIRSLDLRMMGESIFPGANVPTVNKLACDLGGGVWRFVESPIDQEQSHHNGSDRLLVCCMYNGAKVVTMNDNSDEYFQIQHYLKKGHDSMCYGGDWSNSLIATCSFYDNSLQTWIV”, for which the “soluble on expression in E. coli” value is “not soluble”. Consider “MRLHARSPRVESGRYGWLLDSVVDERRRHRMSFLRLGRNGMSEFERPTDHSLGRCGQVLCVTRGVSSRAPRRSAETGVSVATPATVAAHISVWQYEAMSAYAALAEPHRRQILDLLREGERPAGELVERIALSQPGVSKHLKVLREAGLVVVRADGKQRLYALRPEPLAEVDRWLEPYRAYWSRRLDALERHLEENP”, for which the “soluble on expression in E. coli” value was “not soluble”. On to “MYIPPYKADDQDIVVELNSRFGAETFTVQPTRTGMPVLWVPRERLIEVLTFLRQVPKPYVMLYDLHGVDERLRTHRRGLPSADFSVFYHLMSLERNSDVMIKVALSERDLNLPTATRIWPNANWYEREVWDMYGITFTGHPHLTRMLMPPTWQGHPLRKDYPARATEFDPYSLSAAKQDLEQEALRFKPEDWGMKRHGENEDYMFLNLGPNHPSAHGAFRIILQLDGEEIIDCVPEIGYHHRGAEKMAERQSWHSFIPYTDRIDYLGGVMNNLPYVLSVEKLAGIKVPQRVDVIRIMMAEFFRILNHLLYLGTYIQDVGAMTPVFFTFTDRQRAYKVVEAITGFRLHPAWYRIGGVAHDLPRGWDKLVREFLDWMPKRLDEYETAALKNSILRGRTIGVAQYNTKEALEWGTTGAGLRATGCDFDLRKARPYSGYENFEFEVPLAHNGDAYDRCMVKMGEMRQSLRIIEQCLKNMPEGPYKADHPLTTPPPKERTLQHIETLITHFLQVSWGPVMPANEAFQMIEATKGINSYYLTSDGSTMSYRTRIRTPSFAHLQQIPSVINGSM”, for which the “soluble on expression in E. coli” value is given as “not soluble”. Regarding “GPPTRRSDFRVLVSGLPPSGSWQDLKDHMREAGDVCYADVQKDGMGMVEYLRKEDMEYALRKLDDTKFRSHEGETSYIRVYPERS”, the “soluble on expression in E. coli” value is on record as “soluble”. Under “MYEKTKWKIQKMMKKGVFSGASFCFIEGEKEESNCWGLAQVKPTKEQLTSAMLFDVASLTKVVGTTTVILQLVEEGKIILDQSLQTYYPSFQDSNITIRHLLTHTADLQGYIPNRDQLNAQELKDAYNHSFHAGKAIGKKVVYTDAGTILLGFMLEEMFQQSMIEILSERVLLPLGMNESTFLPKNPLNCVPTELHEQRGLIRGATHDPKAFVLREHAGNAGLFSNVYDLTKFVRMYLNRGSYHNHQFLKKETIDLLLVNQVPAADKPRSLGWDFKYDVATQRPLLFHTGYTGTFLLIDVQQQSALIFLSNRVHPEDHRNTYIEERDQLLATYLKEKSSVSDEMTSF” stands “not soluble”; under “MSLGELLFNRSFENTKPVSESNSWYTCYRGDVKEAKWWHSGYEEPKWYLLADGRKEEKLPLIFNNYWPSAHGKYFLQIDNRKKQIPTLLVQERIYIEKGKGYTVSGLFSSGGYLSEEKYSKESVPVTIAIYKEGDFHTPLSKTELAVNTNQFILYSSSLDATEYEGWCTYTIEVPAGGCVGIDLLSLMADDVIKGWKRESVERIKNELRPRTMRMPGGCFTSLYDWRSGIGPREERPVSYDTWWGCELLNDVGTFELVDLCEAVGAEPFFCVPVMFNNEYSAADWVDFCNNPTNAQRIAYGRTKPLNVKYWELENEPYRRFDAVTYANRCVDFAKAMKAKDPSIKIAVGNYWLFNKKFKEMLEIVGPYVDLITNRGGTPEEMRADIVILDAYNKAHGTDIKLCHTEFRAPVTRNEGNTDGLNQKDTGGEETLFNASIRWGFAMNMVEQYIAYQNMGGSFFTANYTNLSDGWGECLINTPKEGTYLNAPGVAFALLNSLDIAYPQIIEQEKENQDIVIQAAWNKRRDKLTLVVLNFSQNTQPCKIDFSQIKKSFRVRKGMKIAPQSDLSFNTLQHPEEVKVESFVPSTGKMMKLGLPGNSLIVVELQAERSHGIHVNASTGNEGHHHHHH”, “not soluble”; under “MSRNNEELQGISLLGNQKTQYPTGYAPEILEAFDNKHPDNDYFVKFVCPEFTSLCPMTGQPDFATIYIRYIPHIKMVESKSLKLYLFSFRNHGDFHEDCVNIIMKDLIALMDPKYIEVFGEFTPRGGIAIHPFANYGKAGTEFETLARKRLFEHDAQ”, “not soluble”.
